Source: publication PMC5601083

Target: T1, RbsR (Serratia sp. ATCC39006) (UniProt A0A2I5T2K0)
T1 sequence: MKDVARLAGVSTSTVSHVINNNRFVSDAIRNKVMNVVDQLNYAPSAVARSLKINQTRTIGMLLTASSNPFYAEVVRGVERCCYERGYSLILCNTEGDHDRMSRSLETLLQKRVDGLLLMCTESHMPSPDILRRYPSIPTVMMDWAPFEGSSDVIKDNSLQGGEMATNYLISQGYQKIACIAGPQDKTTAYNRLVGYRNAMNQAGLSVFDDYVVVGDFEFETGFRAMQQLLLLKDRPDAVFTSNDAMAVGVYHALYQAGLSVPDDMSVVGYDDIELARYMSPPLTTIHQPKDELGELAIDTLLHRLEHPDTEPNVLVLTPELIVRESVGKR
Assay: EMSA
Settings: complete band shift at 14 nM RbsR (protein:DNA 2.8:1); 10% glycerol, 10 mM Tris pH 8.0, 1 mM DTT, 10 mM KCl, 0.5 mM EDTA, BSA (printed 20 ug m-1), 5 nM probe, 30 min on ice; 7.5% native gel in TGE at 4 C

Work on rbsD upstream probe (LUEGO) yielded a binding of 14 nM.
